Results: publication doi:10.1101/2021.03.15.435440 (bioRxiv, 2021)

Molecular target: SARS-CoV-2 spike (6P) (SARS-CoV-2, Wuhan-Hu-1 reference, UniProt P0DTC2, stabilised)
Experiment: cryo-EM structure

B1: Ab16 Fab (Fab, V domains shown)
VH: EVQLQQSGPELVKPGASVKISCKASGYSFNNYYMNWVKQSPEKSLEWIGEINPNSGYTSYNQKFRAKATLTVDKSSTTAYMQLKSLTSEDSAVYYCARYFGNLFAMDFWGQGTSVTVS
VL: DILMTQSPSSMSVSLGDTVSITCHASQGIGSNIGWLQQKPGKSFKGLIYLGTNLEDGVPSRFSGSGSGADYSLTISSLESEDFADYYCVQYVQFPYTFGGGTKLEIK
- binding result: binds
